From patent US20210085786A1 come the findings set out here.

The assay addresses receptor tyrosine kinase-like orphan receptor 1 (ROR1) (human) (UniProt Q01973). Nature of the assay: flow cytometry (FSC against control stain) of PDX tumour cells stained with the control antibody, same ROR1+ gate. (Flow cytometry measures light scatter and fluorescence of single cells or particles in a stream.)
Sequence of UniProt Q01973 (Q01973 30-937): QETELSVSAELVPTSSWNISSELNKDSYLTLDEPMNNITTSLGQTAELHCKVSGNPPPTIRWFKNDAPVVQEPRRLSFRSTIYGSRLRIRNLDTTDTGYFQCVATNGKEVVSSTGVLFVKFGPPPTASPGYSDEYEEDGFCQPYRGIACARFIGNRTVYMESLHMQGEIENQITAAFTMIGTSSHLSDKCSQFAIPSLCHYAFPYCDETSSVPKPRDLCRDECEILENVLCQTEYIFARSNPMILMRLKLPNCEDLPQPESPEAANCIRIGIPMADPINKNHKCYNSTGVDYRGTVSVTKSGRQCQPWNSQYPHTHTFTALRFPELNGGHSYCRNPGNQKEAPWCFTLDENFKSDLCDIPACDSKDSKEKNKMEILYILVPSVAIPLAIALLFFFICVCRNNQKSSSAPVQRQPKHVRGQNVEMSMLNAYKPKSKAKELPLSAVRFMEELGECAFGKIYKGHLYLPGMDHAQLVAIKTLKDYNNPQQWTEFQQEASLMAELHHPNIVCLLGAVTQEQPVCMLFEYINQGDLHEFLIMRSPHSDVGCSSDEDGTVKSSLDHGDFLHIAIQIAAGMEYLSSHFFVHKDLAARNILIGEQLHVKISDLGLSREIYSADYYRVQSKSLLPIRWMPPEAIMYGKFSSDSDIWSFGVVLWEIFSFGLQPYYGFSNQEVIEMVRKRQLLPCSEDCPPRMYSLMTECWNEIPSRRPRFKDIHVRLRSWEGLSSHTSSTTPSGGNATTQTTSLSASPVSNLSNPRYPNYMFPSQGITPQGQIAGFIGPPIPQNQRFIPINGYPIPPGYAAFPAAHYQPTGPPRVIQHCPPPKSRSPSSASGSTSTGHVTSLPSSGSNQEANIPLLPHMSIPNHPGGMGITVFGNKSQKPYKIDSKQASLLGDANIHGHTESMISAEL

Consider Control (antibody), for which the % of cells in the ROR1+ gate is 0.7%.
